Assay results reported in PMC4770091, “Structural hot spots for the solubility of globular proteins” (Nature Communications, 2016).

Biological target: the molecule itself
Experiment: SEC; lysate of transfected HeLa cells (RIPA buffer) on Superdex S200 HR10/30 in hypotonic buffer (20 mM HEPES, 10 mM KCl, 1 mM MgCl2, 1 mM EDTA, 1 mM EGTA, 1 mM DTT, pH 7.5); fractions precipitated with trichloroacetic acid and blotted with anti-myc; molecular weight markers as standard

B1: human α-galactosidase (α-Gal A), wild type (enzyme, UniProt P06280 32-429, looked up)
chain: LDNGLARTPTMGWLHWERFMCNLDCQEEPDSCISEKLFMEMAELMVSEGWKDAGYEYLCIDDCWMAPQRDSEGRLQADPQRFPHGIRQLANYVHSKGLKLGIYADVGNKTCAGFPGSFGYYDIDAQTFADWGVDLLKFDGCYCDSLENLADGYKHMSLALNRTGRSIVYSCEWPLYMWPFQKPNYTEIRQYCNHWRNFADIDDSWKSIKSILDWTSFNQERIVDVAGPGGWNDPDMLVIGNFGLSWNQQVTQMALWAIMAAPLFMSNDLRHISPQAKALLQDKDVIAINQDPLGKQGYQLRQGDNFEVWERPLSGLAWAVAMINRQEIGGPRSYTIAVASLGKGVACNPACFITQLLPVKRKLGFYEWTSRLRSHINPTGTVLLQLENTMQMSLKDLL
notes: human α-galactosidase A, full-length cDNA NM_000169 cloned in pcDNA4/TO/myc-His; The vector pcDNA4/TO/myc-His may also add a His tag after the Myc tag; also called WT α-Gal; Agal; source: HeLa, transiently transfected, in lysate (RIPA buffer); not shown: Myc, C-terminal, kept
  stoichiometry N: 2
